Measurements taken from article PMC8041789.

What was measured:
[1] = molecular target: von Willebrand factor-binding protein (recombinant vWbp) (S. aureus); assay: AFM single-molecule force spectroscopy; vWF-modified tips probing vWbp-modified gold supports (NHS/EDC coupling); PBS; 10 µm x 10 µm areas
[2] = molecular target: clumping factor A (ClfA wild type) on S. aureus ClfA+ cells (S. aureus) (UniProt Q53653); assay: AFM single-molecule force spectroscopy; vWbp-modified tips probing ClfA+ cells; contact time 500 ms before retraction; PBS
[3] = molecular target: clumping factor A (ClfA wild type) on S. aureus ClfA+ cells (S. aureus) (UniProt Q53653); assay: AFM single-molecule force spectroscopy; vWbp-modified tips probing ClfA+ cells; minimum contact time (~100 ms); PBS

## von Willebrand factor (human plasma vWF) (from UniProt P04275 764-2813) (natural protein)
[1]
  binding frequency: 24%
  rupture force: 136 pN

## von Willebrand factor-binding protein (recombinant vWbp) (natural protein)
[2]
  binding frequency: 11%
  rupture force: 446 pN
[3]
  binding frequency: 3%
